Source: patent publication US20250066499A1 (SUNSHINE GUOJIAN PHARMACEUTICAL SHANGHAI, published 2025)

How the values were obtained:
[1] = target: T1, CD73-ND-his (human, UniProt P21589 27-317); test: ELISA as in Example 3, antigen CD73-ND-his, antibody titrated, absorbance 450 nm
T1 construct: Biotinylated and captured on streptavidin in the ELISA
T1 sequence: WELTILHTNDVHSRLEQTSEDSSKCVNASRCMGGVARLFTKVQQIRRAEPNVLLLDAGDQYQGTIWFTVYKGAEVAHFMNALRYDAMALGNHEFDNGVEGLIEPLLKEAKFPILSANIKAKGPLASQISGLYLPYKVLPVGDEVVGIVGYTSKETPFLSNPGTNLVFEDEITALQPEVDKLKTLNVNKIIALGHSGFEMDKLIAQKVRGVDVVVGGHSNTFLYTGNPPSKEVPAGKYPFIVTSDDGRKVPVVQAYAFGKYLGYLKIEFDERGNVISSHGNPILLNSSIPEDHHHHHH

[2] = target: T2, CD73-ND-V186A (human, UniProt P21589 27-317); test: ELISA, biotinylated antigen on streptavidin plate
T2 construct: Alanine mutant of CD73-ND
T2 sequence: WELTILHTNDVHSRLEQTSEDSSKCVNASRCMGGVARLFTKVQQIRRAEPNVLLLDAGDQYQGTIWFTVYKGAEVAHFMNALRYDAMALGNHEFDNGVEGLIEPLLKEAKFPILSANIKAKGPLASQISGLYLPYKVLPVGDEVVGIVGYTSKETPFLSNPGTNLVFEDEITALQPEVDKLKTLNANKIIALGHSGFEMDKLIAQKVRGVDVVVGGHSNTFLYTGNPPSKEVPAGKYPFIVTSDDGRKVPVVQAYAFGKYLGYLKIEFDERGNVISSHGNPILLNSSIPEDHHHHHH
Protocol: (§1) The ELISA plates were coated with SA protein diluted to 1.5 μg/mL in coating buffer (50 mM carbonate coating buffer, pH 9.6) and incubated overnight at 4° C. The supernatant was discarded, and the plates were washed three times with PBST. Then, 5% skimmed milk powder prepared with PBS was added for blocking and the plates were incubated for 2 h at 37° C. After washing the plates once with PBST, CD73-biotin protein (prepared by biotinylating CD73-His protein according to the EZ-Link NHS-Biotin Reagent instructions) was diluted to 0.5 μg/mL and added at 100 μL/well for incubation at room temperature for 1 h. The plates were washed three times with PBST, and the prepared murine-derived monoclonal antibodies against human CD73 were serially diluted with 1% BSA buffer prepared with PBST and added to the ELISA plates at 100 μl/well. The plates were incubated at 37° C. for 1 h. After washing the plates three times with PBST, HRP-labeled goat anti-mouse IgG secondary antibody was added and the plates were incubated for 30 min at 37° C. After washing the plates three times with PBST, the residual droplets were patted dry on absorbent paper as much as possible. Then, 100 μl of TMB color developing solution was added to each well, and the plates were incubated in the dark at room temperature for 5 min for color development. Subsequently, 50 μl of 2M H₂SO₄ stop solution was added to each well to terminate the substrate reaction. The OD values were read at 450 nm using a multimode microplate reader to analyze the binding ability of the tested antibodies to the target antigen human CD73-His.
(§2) Referring to the experimental method in Example 3, the affinity of 48A11-HuV33 for various mutant proteins of CD73-ND was determined. The SA protein was diluted to 1 μg/mL for coating the ELISA plates, and the biotinylated CD73 protein (CD73-biotin) was used at a concentration of 0.1 μg/mL.

[3] = target: T3, CD73-ND-L138A (human, UniProt P21589 27-317); test: ELISA, high plateau value (OD 450 nm)
T3 construct: Alanine mutant of CD73-ND
T3 sequence: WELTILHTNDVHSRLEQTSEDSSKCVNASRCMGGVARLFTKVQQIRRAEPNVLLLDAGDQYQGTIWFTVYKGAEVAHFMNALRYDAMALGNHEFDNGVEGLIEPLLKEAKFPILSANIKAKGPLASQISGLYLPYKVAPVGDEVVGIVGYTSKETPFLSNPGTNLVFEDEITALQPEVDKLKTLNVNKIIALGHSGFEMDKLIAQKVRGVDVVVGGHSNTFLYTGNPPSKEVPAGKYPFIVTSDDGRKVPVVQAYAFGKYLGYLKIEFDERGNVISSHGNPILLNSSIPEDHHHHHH
Protocol: as §1, §2

[4] = target: T4, CD73-ND-K136A (human, UniProt P21589 27-317); test: ELISA, high plateau value (OD 450 nm)
T4 construct: Alanine mutant of CD73-ND
T4 sequence: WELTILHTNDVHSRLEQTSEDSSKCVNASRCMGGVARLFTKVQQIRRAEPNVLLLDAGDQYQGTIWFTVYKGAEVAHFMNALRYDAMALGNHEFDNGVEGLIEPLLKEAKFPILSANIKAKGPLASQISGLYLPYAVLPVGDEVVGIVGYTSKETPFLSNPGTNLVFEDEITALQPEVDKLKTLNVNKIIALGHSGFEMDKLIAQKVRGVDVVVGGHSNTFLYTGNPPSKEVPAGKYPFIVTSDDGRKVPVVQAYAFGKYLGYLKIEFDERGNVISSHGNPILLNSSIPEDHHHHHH
Protocol: as §1, §2

[5] = target: T5, CD73-ND-Y135A (human, UniProt P21589 27-317); test: ELISA, high plateau value (OD 450 nm)
T5 construct: Alanine mutant of CD73-ND
T5 sequence: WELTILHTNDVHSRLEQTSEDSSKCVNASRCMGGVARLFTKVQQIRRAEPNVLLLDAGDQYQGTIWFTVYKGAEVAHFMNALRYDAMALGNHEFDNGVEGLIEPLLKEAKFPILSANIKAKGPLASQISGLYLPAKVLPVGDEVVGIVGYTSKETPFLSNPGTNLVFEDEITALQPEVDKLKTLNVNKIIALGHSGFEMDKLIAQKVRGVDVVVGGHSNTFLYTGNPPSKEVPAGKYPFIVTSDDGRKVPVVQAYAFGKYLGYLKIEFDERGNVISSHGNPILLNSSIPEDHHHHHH
Protocol: as §1, §2

[6] = target: T6, CD73-ND-Y132A (human, UniProt P21589 27-317); test: ELISA, high plateau value (OD 450 nm)
T6 construct: Alanine mutant of CD73-ND
T6 sequence: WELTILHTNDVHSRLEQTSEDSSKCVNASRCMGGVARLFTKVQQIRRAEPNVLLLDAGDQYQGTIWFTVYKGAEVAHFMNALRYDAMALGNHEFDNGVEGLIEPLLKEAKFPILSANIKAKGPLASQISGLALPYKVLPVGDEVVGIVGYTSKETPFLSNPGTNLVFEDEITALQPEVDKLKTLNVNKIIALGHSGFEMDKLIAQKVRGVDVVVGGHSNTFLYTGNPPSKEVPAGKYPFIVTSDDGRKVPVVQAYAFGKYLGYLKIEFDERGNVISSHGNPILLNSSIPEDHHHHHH
Protocol: as §1, §2

B1: 48A11-HuV33 (antibody, human IgG4, V domains shown)
VH: QVQLVQSGAEVKKPGASVKVSCKASGYTFTSYWMHWVRQAPGQGLEWIGEINPSIGRTNYNEKFKSRVTLTRDTSTSTAYMELSSLRSEDTAVYYCARRVYGTMDYWGQGTLVTVSS
VL: DIQMTQSPSSLSASVGDRVTITCKASQDINSYLSWFQQKPGKSPKLLIYRANIWVDGVPSRFSGSGSGQDYTFTISSLQPEDIATYYCLQYDELYTFGQGTKVEIK
notes: Humanized
For B1, the “EC50 (read off the curve)” value [1] was roughly 0.04 nM, the EC50 [2] was 0.16 nM and the Top [3] was 1.91. For the same binder, the Top [4] was 2.12, the Top [5] was 1.96 and the Top [6] was 0.254.
